From PMC8248823, “Phosphorus and sulfur SAD phasing of the nucleic acid-bound DNA-binding domain of interferon regulatory factor 4”

Molecular target: T1, IRF4 DBD (human, UniProt Q15306 20-139)
T1 sequence: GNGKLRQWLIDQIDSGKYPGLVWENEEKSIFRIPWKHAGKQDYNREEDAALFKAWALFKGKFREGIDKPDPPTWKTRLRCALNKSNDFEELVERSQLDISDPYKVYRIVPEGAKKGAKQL
Assay: X-ray crystallography (native P/S SAD); three IRF4 DBD molecules on one ISRE; DNA:protein 1.2:1 mixed before crystallization; Crystallization complex: protein in 20 mM Tris-HCl pH 8, 500 mM NaCl, 0.5 mM TCEP (gel-filtration buffer); DNA:protein 1.2:1, 1 h at 277 K; crystallization conditions not in material
Settings: protein: recombinant; tags: N-terminal 6xHis; chain copies: 3; 5' overhang 1 nt on each strand (A / T), 20 bp duplex

B1: ISRE 21-mer (dsDNA)
DNA 1: AATAAAAGAAACCGAAAGTAA
DNA 2: TTTACTTTCGGTTTCTTTTAT
binding result: binds
